Experimental data: IntAct's records for PubMed 24968893

B1: Autophagy-related protein 19 (Saccharomyces cerevisiae), P35193 (parent)
chain: MNNSKTNQQMNTSMGYPLTVYDECNKFQLIVPTLDANIMLWCIGQLSLLNDSNGCKHLFWQPNDKSNVRILLNNYDYGHLFKYLQCQRKCSVYIGEGTLKKYNLTISTSFDNFLDLTPSEEKESLCREDAHEDPVSPKAGSEEEISPNSTSNVVVSRECLDNFMKQLLKLEESLNKLELEQKVTNKEPNHRISGTIDIPEDRSELVNFFTELKTVKQLEDVFQRYHDYERLSQECDSKTEIASDHSKKETKIEVEPPNERSLQITMNQRDNSLYFQLFNNTNSVLAGNCKLKFTDAGDKPTTQIIDMGPHEIGIKEYKEYRYFPYALDLEAGSTIEIENQYGEVIFLGKYGSSPMINLRPPSRLSAESLQASQEPFYSFQIDTLPELDDSSIISTSISLSYDGDDNEKALTWEEL
partner: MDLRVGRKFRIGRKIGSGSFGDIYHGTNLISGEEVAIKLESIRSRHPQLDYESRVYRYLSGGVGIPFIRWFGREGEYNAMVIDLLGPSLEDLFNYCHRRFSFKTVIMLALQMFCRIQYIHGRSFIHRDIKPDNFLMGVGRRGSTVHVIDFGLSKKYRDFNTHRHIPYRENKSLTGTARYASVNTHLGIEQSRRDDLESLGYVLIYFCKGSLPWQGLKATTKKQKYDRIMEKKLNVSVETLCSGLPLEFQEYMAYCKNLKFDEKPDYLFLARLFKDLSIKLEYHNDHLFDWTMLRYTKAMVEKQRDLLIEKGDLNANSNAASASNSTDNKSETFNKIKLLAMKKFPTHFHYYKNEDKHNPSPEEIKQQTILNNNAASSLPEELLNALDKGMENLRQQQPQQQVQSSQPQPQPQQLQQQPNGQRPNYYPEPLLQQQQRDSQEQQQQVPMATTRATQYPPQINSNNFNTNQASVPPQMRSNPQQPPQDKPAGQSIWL
B2: Autophagy-related protein 19 (Saccharomyces cerevisiae), P35193 (parent)
chain: B1 chain
partner: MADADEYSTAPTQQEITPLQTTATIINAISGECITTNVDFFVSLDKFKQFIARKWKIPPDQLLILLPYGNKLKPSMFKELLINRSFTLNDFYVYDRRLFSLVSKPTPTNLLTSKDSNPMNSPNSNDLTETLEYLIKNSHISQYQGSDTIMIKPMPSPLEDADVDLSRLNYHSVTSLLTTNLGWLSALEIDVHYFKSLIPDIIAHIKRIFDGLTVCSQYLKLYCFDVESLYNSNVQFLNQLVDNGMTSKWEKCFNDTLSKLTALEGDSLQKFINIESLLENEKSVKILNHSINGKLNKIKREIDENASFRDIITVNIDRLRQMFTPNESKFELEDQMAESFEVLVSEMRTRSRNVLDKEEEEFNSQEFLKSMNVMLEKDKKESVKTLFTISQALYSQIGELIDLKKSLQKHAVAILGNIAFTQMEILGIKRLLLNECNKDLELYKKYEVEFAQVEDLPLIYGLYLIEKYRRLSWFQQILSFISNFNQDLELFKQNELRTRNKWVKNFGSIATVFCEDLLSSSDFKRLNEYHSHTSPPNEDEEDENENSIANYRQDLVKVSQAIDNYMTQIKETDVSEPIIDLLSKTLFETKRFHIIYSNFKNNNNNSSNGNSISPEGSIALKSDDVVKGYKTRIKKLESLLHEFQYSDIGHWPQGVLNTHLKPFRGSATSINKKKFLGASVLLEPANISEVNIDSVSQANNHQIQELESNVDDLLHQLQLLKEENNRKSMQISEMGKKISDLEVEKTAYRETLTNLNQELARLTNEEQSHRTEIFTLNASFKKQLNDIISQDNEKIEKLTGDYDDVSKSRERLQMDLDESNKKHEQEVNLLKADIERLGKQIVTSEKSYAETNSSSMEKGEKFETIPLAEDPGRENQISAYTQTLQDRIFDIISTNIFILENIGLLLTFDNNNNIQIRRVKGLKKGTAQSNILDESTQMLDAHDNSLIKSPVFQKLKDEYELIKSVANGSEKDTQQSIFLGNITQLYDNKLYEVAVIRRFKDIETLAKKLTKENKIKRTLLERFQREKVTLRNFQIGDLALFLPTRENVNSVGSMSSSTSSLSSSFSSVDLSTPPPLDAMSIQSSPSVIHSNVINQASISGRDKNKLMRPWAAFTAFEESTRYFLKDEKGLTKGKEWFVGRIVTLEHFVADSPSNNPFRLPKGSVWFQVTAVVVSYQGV
B3: Serine/threonine-protein kinase ATG1 (Saccharomyces cerevisiae), P53104 (parent)
chain: MGDIKNKDHTTSVNHNLMASAGNYTAEKEIGKGSFATVYRGHLTSDKSQHVAIKEVSRAKLKNKKLLENLEIEIAILKKIKHPHIVGLIDCERTSTDFYLIMEYCALGDLTFLLKRRKELMENHPLLRTVFEKYPPPSENHNGLHRAFVLSYLQQLASALKFLRSKNLVHRDIKPQNLLLSTPLIGYHDSKSFHELGFVGIYNLPILKIADFGFARFLPNTSLAETLCGSPLYMAPEILNYQKYNAKADLWSVGTVVFEMCCGTPPFRASNHLELFKKIKRANDVITFPSYCNIEPELKELICSLLTFDPAQRIGFEEFFANKVVNEDLSSYELEDDLPELESKSKGIVESNMFVSEYLSKQPKSPNSNLAGHQSMADNPAELSDALKNSNILTAPAVKTDHTQAVDKKASNNKYHNSLVSDRSFEREYVVVEKKSVEVNSLADEVAQAGFNPNPIKHPTSTQNQNVLLNEQFSPNNQQYFQNQGENPRLLRATSSSSGGSDGSRRPSLVDRRLSISSLNPSNALSRALGIASTRLFGGANQQQQQQQITSSPPYSQTLLNSQLFHELTENIILRIDHLQHPETLKLDNTNIVSILESLAAKAFVVYSYAEVKFSQIVPLSTTLKGMANFENRRSMDSNAIAEEQDSDDAEEEDETLKKYKEDCLSTKTFGKGRTLSATSQLSATFNKLPRSEMILLCNEAIVLYMKALSILSKSMQVTSNWWYESQEKSCSLRVNVLVQWLREKFNECLEKADFLRLKINDLRFKHASEVAENQTLEEKGSSEEPVYLEKLLYDRALEISKMAAHMELKGENLYNCELAYATSLWMLETSLDDDDFTNAYGDYPFKTNIHLKSNDVEDKEKYHSVLDENDRIIIRKYIDSIANRLKILRQKMNHQN
partner: B1 chain
B4: Autophagy-related protein 19 (Saccharomyces cerevisiae), P35193 (parent)
chain: B1 chain
partner: B3 chain

Variants of: B1
Conditions: with hrr25_yeast HRR25, P29295

Row | effect of a mutation on the interaction | Variant
1 | disrupting interaction | S390A;S391A;S396A

Variants of: B2
Conditions: with atg11_yeast ATG11, Q12527

Row | effect of a mutation on the interaction | Variant
2 | disrupting interaction | S390A;S391A;S396A

Variants of: B2
Conditions: with atg11_yeast ATG11, Q12527
Remark: another data set of the same source

Row | effect of a mutation on the interaction | Variant
3 | disrupting interaction | S390A;S391A;S396A

Variants of: B2
Conditions: with atg11_yeast ATG11, Q12527
Remark: another data set of the same source

Row | effect of a mutation on the interaction | Variant
4 | increasing interaction | S390D;S391D;S396D

Variants of: B3
Conditions: with atg19_yeast ATG19, P35193

Row | effect of a mutation on the interaction | Variant
5 | disrupting interaction | D211A

Variants of: B4
Conditions: with atg1_yeast ATG1, P53104

Row | effect of a mutation on the interaction | Variant
6 | disrupting interaction | S390A;S391A;S396A

Variants of: B4
Conditions: with atg1_yeast ATG1, P53104
Remark: another data set of the same source

Row | effect of a mutation on the interaction | Variant
7 | disrupting interaction | S390D;S391D;S396D
